Molecular target: NaV1.5 CTD (Homo sapiens, UniProt Q14524)
Assay: ITC

Sequence of NaV1.5 CTD (Q14524 1773-1940): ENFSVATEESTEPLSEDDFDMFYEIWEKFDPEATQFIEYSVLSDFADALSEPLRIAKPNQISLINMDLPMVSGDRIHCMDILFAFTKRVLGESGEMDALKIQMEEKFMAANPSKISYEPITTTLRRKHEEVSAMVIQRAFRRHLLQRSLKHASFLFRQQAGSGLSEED

B1: FGF13 (protein)
chain: MAAAIASSLIRQKRQAREREKSNACKCVSSPSKGKTSCDKNKLNVFSRVKLFGSKKRRRRRPEPQLKGIVTKLYSRQGYHLQLQADGTIDGTKDEDSTYTLFNLIPVGLRVVAIQGVQTKLYLAMNSEGYLYTSELFTPECKFKESVFENYYVTYSSMIYRQQQSGRGWYLGLNKEGEIMKGNHVKKNKPAAHFLPKPLKVAMYKEPSLHDLTEFSRSGSGTPTKSRSVSGVLNGGKSMSHNEST
B1 gave a Kd of 123 nM.

— paper PMC12520690 (2025)
